Experimental data reported in paper doi:10.1101/2021.06.28.21259671.

What was measured:
[1] = biological target: chimeric secretory component (CSC) of the polymeric immunoglobulin receptor (rabbit/human chimera); experiment: lateral flow assay
[2] = biological target: chimeric secretory component (CSC) of the polymeric immunoglobulin receptor (rabbit/human chimera); experiment: SEC

Substance	limit of detection [1] [µg/mL]	stoichiometry N [2]
CB6-dIgA1 (dimeric IgA1 form of the SARS-CoV-2 specific monoclonal antibody CB6, with J chain)	0.123	–
CB6-dIgA2 (dimeric IgA2 form of the SARS-CoV-2 specific monoclonal antibody CB6, with J chain)	0.128	–
chimeric secretory component (CSC) of the polymeric immunoglobulin receptor	–	2
